# Assay results published in patent US20230417748A1.
# Several values for one entry are separate records, joined by “and”; a condition that tells them apart may be missing. Equal values may be shown once.
# B1: clone 5E9 (antibody, V domains shown)
# VH: EVQLVESGGGLVQPGGSLRLSCAASGFTFTTYDMGWVRQAPGKGPEWVSLISSGGSNTWYDDSVKGRFTISRDNSKNTLYLQMNSLRAEDTAVYYCAKEKYPYSDCDYWGQGTLVTVSS
# B2: clone 6D9 (antibody, V domains shown)
# VH: EVQLVESGGGLVQPGGSLRLSCAASGFTFTDYDMGWVRQAPGKGPEWVSLISGDSGNTWYDDSVKGRFTISRDNSKNTLYLQMNSLRAEDTAVYYCAKYRGTTKDYWGQGTLVTVSS
# Biological target: recombinant SARS (1-1190) (Beta Lifescience, BLIT-0210) (SARS-CoV), P59594
# Details: remark: other sources report otherwise
row,Binder,O.D.
1,B1,0.294 O.D. and 0.278 O.D.
2,B2,0.389 O.D. and 0.386 O.D.
